# Measurements from patent US10087225B2, “Formulation of MK2 inhibitor peptides” (MOERAE MATRIX, INC., priority 2015, dated 2018).
# Experiments:
# [1] = target: Ab1(h) (Homo sapiens, UniProt P00519); test: Kinase Profiling Assay; type: biochemical; details: 100 μM
# [2] = target: CDK3/cyclinE(h) (Homo sapiens, UniProt Q00526); test: Kinase Profiling Assay; type: biochemical; details: 100 μM
# [3] = target: T1, CHK1(h) (Homo sapiens, UniProt O14757); test: Kinase Profiling Assay; type: biochemical; details: 100 μM
# T1 sequence (O14757 1-476): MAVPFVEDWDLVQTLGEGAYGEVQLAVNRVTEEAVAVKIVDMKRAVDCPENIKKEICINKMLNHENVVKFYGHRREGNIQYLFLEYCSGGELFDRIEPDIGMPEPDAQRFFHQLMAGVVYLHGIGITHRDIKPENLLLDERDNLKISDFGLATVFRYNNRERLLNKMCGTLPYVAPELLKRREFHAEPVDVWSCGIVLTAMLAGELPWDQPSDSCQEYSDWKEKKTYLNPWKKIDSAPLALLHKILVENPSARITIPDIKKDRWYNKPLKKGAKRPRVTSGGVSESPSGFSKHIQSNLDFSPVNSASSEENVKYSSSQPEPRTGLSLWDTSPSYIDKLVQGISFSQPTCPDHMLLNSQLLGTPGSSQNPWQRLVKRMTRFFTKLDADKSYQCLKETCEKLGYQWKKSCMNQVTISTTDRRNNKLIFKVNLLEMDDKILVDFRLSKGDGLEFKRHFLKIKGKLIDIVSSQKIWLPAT
# [4] = target: c-RAF(h) (Homo sapiens, UniProt P04049); test: Kinase Profiling Assay; type: biochemical; details: 100 μM
# [5] = target: T2, DDR2(h) (Homo sapiens, UniProt Q16832); test: Kinase Profiling Assay; type: biochemical; details: 100 μM
# T2 sequence (Q16832 22-855): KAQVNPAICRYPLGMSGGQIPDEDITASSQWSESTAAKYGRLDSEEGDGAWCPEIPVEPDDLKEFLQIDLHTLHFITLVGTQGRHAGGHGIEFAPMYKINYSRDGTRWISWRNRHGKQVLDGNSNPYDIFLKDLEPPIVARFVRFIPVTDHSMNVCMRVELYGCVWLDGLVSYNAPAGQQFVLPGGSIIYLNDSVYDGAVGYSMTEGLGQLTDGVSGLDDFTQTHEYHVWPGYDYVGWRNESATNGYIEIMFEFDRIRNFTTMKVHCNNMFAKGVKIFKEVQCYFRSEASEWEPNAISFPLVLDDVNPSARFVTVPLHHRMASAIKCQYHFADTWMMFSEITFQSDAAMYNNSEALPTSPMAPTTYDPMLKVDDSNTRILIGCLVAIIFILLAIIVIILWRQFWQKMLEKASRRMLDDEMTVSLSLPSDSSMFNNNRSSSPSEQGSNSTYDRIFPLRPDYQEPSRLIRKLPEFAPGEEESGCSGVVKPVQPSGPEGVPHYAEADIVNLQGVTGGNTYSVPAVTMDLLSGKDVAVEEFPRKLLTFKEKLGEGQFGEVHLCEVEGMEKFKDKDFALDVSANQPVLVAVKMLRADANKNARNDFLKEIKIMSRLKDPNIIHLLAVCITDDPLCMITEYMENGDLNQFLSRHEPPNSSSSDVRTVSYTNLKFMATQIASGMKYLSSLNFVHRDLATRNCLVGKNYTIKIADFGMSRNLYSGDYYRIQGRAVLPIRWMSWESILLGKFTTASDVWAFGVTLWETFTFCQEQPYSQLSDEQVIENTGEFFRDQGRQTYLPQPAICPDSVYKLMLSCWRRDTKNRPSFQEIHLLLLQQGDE
# [6] = target: EGFR(T790M)(h) (Homo sapiens, UniProt P00533, T790M); test: Kinase Profiling Assay; type: biochemical; details: 100 μM
# [7] = target: Hck(h) (Homo sapiens, UniProt P08631); test: Kinase Profiling Assay; type: biochemical; details: 100 μM
# [8] = target: PKBγ(h) (Homo sapiens, UniProt Q9Y243); test: Kinase Profiling Assay; type: biochemical; details: 100 μM
# [9] = target: Plk3(h) (Homo sapiens, UniProt Q9H4B4); test: Kinase Profiling Assay; type: biochemical; details: 100 μM
# [10] = target: Rsk3(h) (Homo sapiens, UniProt Q15349); test: Kinase Profiling Assay; type: biochemical; details: 100 μM
# [11] = target: T3, SAPK4(h) (Homo sapiens, UniProt O15264); test: Kinase Profiling Assay; type: biochemical; details: 100 μM
# T3 sequence (O15264 1-365): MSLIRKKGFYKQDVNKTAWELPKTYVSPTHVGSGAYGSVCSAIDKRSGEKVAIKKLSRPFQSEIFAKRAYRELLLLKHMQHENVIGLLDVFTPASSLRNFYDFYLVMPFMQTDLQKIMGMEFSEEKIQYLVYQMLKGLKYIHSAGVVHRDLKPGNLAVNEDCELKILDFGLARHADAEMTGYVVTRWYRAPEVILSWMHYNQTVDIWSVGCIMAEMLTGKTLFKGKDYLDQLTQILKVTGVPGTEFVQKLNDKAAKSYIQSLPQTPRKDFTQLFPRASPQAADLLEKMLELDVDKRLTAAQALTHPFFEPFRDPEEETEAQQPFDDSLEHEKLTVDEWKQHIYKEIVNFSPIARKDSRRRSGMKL
# [12] = target: SIK(h) (Homo sapiens, UniProt P57059); test: Kinase Profiling Assay; type: biochemical; details: 100 μM
# [13] = target: EphA2(h) (Homo sapiens, UniProt P29317); test: Kinase Profiling Assay; type: biochemical; details: 100 μM
# [14] = target: Fgr(h) (Homo sapiens, UniProt P09769); test: Kinase Profiling Assay; type: biochemical; details: 100 μM
# [15] = target: GRK5(h) (Homo sapiens, UniProt P34947); test: Kinase Profiling Assay; type: biochemical; details: 100 μM
# [16] = human, HCAVSMCs, 10 μM, intracellular half-life (t1/2), fluorescence 0 and 5 days after treatment removal
# Method: (§1) HCAVSMCs were grown to 80-90% confluence, harvested, and seeded at 20,000 cells/well in a 24 well plate and allowed to adhere overnight in low serum media (DMEM, 1% FBS, and 1% P/S). […] Following treatment, cells were washed with PBS −/−, washed with CellScrub buffer (Genlantis) for 10 minutes at room temperature to remove extracellular polyplexes and/or peptide, washed 2× in PBS −/−, and given fresh complete growth media. Cells were then incubated for an additional 0, 12, 24, 72, or 120 hours. Cells were then washed with PBS −/−, trypsinized, and resuspended in 0.1% Trypan blue in PBS (−/−) for analysis on a FACSCalibur flow cytometer (Becton Dickinson) with BD CellQuest™ Pro software (V 5.2). Data was exported and analyzed with FlowJo software (V 7.6.4). All samples were run in triplicate.
# [17] = test system: HCAVSMCs; test: Flow cytometric intracellular uptake, retention and half-life (2 h treatment); details: fluorescence 0 and 5 days after treatment removal; listed as MK2i
# Method: as §1
# Sequence of Rsk3(h) (Q15349 whole entry): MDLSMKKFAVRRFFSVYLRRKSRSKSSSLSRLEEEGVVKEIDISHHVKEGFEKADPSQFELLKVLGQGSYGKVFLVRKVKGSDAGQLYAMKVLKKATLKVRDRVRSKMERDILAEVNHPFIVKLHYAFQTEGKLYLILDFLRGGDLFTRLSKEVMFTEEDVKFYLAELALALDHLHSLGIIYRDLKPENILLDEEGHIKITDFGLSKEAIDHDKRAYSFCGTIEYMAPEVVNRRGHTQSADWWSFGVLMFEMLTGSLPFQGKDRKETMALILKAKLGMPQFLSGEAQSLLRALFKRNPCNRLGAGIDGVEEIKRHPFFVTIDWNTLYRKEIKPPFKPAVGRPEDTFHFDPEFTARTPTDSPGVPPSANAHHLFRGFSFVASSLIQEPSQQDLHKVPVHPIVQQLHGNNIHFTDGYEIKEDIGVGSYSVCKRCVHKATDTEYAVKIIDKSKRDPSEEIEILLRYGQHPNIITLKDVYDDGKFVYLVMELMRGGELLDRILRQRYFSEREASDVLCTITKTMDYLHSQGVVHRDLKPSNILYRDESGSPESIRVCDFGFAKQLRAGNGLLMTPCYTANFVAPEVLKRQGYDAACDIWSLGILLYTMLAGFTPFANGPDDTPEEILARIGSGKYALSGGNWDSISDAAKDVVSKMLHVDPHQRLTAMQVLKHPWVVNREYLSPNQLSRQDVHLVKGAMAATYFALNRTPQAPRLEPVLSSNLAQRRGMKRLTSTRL
# Sequence of Hck(h) (P08631 whole entry): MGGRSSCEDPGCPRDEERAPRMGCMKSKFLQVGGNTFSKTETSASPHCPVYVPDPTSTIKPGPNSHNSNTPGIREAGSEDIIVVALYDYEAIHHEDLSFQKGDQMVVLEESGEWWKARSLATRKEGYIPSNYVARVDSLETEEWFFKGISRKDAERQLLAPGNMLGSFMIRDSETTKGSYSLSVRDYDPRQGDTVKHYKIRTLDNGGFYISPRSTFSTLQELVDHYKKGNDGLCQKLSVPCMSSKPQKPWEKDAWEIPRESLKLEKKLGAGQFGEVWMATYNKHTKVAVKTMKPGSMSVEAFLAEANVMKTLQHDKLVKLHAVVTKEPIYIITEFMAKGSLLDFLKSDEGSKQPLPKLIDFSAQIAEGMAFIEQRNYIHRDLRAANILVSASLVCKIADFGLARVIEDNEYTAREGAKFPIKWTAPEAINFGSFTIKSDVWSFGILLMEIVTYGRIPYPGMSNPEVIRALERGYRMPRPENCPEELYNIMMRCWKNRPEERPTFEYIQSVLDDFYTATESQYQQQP
# Sequence of GRK5(h) (P34947 whole entry): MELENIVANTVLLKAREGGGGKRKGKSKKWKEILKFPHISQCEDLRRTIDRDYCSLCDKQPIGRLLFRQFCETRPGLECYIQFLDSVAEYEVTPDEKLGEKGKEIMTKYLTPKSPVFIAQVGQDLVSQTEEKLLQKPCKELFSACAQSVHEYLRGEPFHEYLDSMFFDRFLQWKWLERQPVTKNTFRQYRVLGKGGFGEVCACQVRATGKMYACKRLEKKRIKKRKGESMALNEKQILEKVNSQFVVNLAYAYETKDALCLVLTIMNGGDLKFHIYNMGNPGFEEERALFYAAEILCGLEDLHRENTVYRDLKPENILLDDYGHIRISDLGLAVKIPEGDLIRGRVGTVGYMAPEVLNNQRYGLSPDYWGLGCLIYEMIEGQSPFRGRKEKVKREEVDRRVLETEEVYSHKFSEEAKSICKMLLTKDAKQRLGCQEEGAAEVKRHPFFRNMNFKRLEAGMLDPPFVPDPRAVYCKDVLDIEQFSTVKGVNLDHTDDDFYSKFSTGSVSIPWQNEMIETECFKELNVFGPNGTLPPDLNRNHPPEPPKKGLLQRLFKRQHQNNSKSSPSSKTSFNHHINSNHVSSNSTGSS
# Sequence of CDK3/cyclinE(h) (Q00526 whole entry): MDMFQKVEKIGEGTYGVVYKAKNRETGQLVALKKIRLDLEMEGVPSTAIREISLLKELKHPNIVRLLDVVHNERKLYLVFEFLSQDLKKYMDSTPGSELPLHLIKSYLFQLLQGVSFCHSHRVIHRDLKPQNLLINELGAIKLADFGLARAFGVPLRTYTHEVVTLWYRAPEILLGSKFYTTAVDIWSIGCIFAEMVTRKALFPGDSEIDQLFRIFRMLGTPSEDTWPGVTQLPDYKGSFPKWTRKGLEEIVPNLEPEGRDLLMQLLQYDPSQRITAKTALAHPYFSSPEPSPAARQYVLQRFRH
# Sequence of CDK3/cyclinE(h) (P24864 whole entry partner): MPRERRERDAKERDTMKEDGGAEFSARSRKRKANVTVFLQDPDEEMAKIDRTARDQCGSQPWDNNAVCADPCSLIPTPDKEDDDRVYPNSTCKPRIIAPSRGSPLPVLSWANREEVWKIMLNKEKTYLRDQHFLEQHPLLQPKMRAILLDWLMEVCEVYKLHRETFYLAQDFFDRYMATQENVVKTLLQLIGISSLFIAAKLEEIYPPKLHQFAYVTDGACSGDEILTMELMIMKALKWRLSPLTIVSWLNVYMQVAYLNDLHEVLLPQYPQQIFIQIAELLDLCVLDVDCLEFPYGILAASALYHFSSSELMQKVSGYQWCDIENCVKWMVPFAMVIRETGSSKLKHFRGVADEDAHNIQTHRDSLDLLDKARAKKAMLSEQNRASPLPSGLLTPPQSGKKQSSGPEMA
# Sequence of SIK(h) (P57059 whole entry): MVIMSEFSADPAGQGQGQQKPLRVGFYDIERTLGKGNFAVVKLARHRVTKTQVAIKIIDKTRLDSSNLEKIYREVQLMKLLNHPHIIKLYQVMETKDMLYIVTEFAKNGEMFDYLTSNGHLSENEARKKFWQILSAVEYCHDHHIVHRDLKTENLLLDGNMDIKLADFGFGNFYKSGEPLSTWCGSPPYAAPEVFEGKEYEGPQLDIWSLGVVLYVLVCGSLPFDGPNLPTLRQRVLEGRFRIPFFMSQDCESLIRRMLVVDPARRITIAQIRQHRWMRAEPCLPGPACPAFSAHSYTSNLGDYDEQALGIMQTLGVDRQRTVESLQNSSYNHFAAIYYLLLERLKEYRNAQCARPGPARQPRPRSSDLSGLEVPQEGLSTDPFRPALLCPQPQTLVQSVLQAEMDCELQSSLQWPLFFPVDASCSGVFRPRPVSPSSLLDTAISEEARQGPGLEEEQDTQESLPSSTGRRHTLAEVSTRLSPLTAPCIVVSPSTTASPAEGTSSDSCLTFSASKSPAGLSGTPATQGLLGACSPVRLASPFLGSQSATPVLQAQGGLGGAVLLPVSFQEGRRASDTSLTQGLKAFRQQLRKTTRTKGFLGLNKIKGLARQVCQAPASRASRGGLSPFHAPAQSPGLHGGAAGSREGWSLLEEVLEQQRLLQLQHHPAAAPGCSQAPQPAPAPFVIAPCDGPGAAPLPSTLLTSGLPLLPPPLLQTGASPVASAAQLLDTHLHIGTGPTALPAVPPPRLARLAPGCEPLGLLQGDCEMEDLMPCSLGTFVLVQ
# Sequence of PKBγ(h) (Q9Y243 whole entry): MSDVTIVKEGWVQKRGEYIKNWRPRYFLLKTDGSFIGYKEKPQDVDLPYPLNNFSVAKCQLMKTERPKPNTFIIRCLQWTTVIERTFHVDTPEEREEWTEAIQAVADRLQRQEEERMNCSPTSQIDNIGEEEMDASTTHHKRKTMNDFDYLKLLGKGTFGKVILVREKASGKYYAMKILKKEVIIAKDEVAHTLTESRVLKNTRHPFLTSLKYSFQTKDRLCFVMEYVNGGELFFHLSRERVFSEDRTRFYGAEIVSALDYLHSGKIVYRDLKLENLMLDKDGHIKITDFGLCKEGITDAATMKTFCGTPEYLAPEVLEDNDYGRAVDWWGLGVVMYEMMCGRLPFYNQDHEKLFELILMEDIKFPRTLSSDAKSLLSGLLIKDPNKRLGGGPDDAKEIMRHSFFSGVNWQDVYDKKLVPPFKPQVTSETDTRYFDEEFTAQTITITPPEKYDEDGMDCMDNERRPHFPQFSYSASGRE
# Sequence of Ab1(h) (P00519 whole entry): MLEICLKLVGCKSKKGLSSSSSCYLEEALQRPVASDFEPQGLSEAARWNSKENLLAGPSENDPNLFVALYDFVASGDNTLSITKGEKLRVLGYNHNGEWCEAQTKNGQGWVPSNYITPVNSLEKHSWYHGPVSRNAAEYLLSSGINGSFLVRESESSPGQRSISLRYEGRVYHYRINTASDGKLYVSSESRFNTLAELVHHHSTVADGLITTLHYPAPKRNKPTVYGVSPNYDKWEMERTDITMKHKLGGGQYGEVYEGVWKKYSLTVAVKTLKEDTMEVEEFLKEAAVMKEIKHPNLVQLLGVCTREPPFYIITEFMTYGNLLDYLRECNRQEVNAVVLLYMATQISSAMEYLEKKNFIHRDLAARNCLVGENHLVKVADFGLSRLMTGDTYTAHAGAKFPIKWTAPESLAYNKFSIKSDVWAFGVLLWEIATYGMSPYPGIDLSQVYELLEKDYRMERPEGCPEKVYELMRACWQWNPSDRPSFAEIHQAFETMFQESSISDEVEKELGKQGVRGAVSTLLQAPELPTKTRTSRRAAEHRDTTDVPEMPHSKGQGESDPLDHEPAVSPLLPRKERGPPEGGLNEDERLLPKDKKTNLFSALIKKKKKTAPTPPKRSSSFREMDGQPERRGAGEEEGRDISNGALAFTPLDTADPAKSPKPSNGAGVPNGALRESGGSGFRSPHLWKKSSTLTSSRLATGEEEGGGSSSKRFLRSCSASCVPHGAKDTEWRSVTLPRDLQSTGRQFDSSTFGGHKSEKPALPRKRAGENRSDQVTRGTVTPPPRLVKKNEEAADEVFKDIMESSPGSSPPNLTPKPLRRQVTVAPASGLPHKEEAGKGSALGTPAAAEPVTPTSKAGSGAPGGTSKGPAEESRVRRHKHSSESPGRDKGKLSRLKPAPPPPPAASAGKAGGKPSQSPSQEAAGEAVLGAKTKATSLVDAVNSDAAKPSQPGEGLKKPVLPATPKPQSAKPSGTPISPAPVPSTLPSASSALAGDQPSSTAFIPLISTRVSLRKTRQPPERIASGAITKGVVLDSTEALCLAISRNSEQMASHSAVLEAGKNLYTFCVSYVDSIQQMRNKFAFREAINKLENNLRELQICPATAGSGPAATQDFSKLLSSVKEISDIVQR
substance,measurement,setting,value
HRRIKAWLKKIKALARQLGVAA (Mammalian) [MMI-0500],% activity,[1],16%
same,% activity,[2],8%
same,% activity,[3],65%
same,% activity,[4],19%
same,% activity,[5],79%
same,% activity,[6],70%
same,% activity,[7],78%
same,% activity,[8],20%
same,% activity,[9],122%
same,% activity,[10],23%
same,% activity,[11],48%
same,% activity,[12],40%
YARAAARQARAKALNRQLGVA (Mammalian) [MMI-0200],% activity,[13],95%
same,% activity,[14],71%
same,% activity,[15],135%
H-YARAAARQARAKALARQLGVAA-OH [MMI-0100],half-life,[16],96 h
same,intracellular half-life (t1/2),[17],98.4 h
